Consider four molecules from patent US20190309094A1 (Y BIOLOGICS, published 2019).

Changes are numbered by the printed parent chain.

One experiment addresses PD-L1 expressed on cells (UniProt Q9NZQ7 19-290, limits assumed). Description: cell-based or functional assay.
The target of the next experiment is CD3 (Sino Biological). Description: ELISA on CD3, curve fit. As for the experimental part:
Next day, plate was washed once with 200 μl of PBST, and then a surface blocking was performed at room temperature with 5% skim milk for 1-2 hours. […] Each well was then washed three times with 200 μl of PB ST to remove unbound samples. Horseradish peroxidase (HRP)-conjugated anti-human IgG (Fab specific) antibodies (Sigma, USA) were added to wells at a ratio of 1:1000 for a reaction at room temperature. After three times of washing with 200 ul of PBST, a color reaction of HRP was induced using TMB solution (GEhealthcare, USA) in a volume of 100 μl/well. The reaction was terminated by using a stop solution (2.5 M H₂SO₄, 100 μl/well). A spectrophotometer was used to measure the absorbance at a wavelength of A450 to calculate the binding affinity.
A general note: In an ELISA, binding on a coated surface is turned into a signal by an enzyme label.

Sequence of CD3 (Sino Biological) (P07766 23-126, chain 1 of 2): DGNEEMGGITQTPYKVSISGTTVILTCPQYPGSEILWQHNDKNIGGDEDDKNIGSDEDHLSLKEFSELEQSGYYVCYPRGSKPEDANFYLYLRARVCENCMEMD
Sequence of CD3 (Sino Biological) (P04234 22-105, chain 2 of 2, further chain): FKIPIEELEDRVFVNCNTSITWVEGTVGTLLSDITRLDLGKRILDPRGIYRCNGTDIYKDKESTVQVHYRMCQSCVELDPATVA
Sequence of PD-L1 expressed on cells (Q9NZQ7 19-290 limits assumed): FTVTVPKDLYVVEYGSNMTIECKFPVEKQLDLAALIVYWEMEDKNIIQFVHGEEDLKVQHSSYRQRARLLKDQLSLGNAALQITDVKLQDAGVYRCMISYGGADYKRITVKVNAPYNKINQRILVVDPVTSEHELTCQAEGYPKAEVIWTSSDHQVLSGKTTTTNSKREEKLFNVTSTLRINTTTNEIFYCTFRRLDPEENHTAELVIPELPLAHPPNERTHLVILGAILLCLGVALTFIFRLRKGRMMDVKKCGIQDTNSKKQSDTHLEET

B1: ACE-05-VL2 (other)
heavy: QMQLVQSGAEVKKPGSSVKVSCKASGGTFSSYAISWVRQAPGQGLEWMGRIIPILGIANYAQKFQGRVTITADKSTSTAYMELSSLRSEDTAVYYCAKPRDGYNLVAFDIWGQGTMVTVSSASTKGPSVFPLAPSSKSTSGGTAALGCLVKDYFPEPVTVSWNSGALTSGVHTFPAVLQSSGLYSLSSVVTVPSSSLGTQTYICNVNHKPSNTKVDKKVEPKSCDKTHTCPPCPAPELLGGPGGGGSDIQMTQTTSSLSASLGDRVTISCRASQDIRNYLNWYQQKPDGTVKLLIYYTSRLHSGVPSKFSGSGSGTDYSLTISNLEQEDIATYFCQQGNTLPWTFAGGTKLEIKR
light: QLVLTQPPSVSGAPGQRVTISCTGSSSNIGAGYDVHWYQQLPGAAPKLLIYGDINRPSGVPDRFSGSKSGISASLAITGLQAEDEADYYCQSYDSSLSGGVFGGGTKLTVLRTVAAPSVFIFPPSDEQLKSGTASVVCLLNNFYPREAKVQWKVDNALQSGNSQESVTEQDSKDSTYSLSSTLTLSKADYEKHKVYACEVTHQGLSSPVTKSFNRGEC
B1: the “EC50 (read off the curve), PD-1/PD-L1 Blockade Bioassay” value in the experiment with PD-L1 expressed on cells was roughly 0.09 µg/mL.

B2: ACE-05 (bispecific antibody)
heavy 1: not shown
heavy 2: not shown
light: B1 light
notes: also called ALiCE; ACE-05-VH + ACE-05-VL + ACE-05-LC
Turning to B2, in the experiment with CD3 (Sino Biological), the Bmax was found to be 3.97 OD 450 nm.

B3: ACE-09 (bispecific antibody)
heavy 1: not shown
heavy 2: not shown
light: B1 light with T113S
notes: also called ACE-09-VH + ACE-09-VL + ACE-09-LC
B3 showed a Bmax with CD3 (Sino Biological) of 4.04 OD 450 nm.

B4: UCHT1 (antibody, V domains shown)
VH: EVQLQQSGPELVKPGPSMKISCKASGYSFTGYTMNWVKQSHGKNLEWMGLINPYKGVSTYNQKFKDKATLTVDKSSSTAYMELLSLTSEDSAVYYCARSGYYGDSDWYFDVWGQGTTLTVFS
VL: DIQMTQTTSSLSASLGDRVTISCRASQDIRNYLNWYQQKPDGTVKLLIYYTSRLHSGVPSKFSGSGSGTDYSLTISNLEQEDIATYFCQQGNTLPWTFAGGTKLEIKR
notes: A bought antibody (BioLegend); also called parental anti-CD3 antibody
B4 gave a Bmax with CD3 (Sino Biological) of 3.67 OD 450 nm.
